Data on three molecules can be found in article PMC5374524, “Label-free quantification of calcium-sensor targeting to photoreceptor guanylate cyclase and rhodopsin kinase by backscattering interferometry” (Scientific Reports, 2017).

Experiment [1] addresses MBP-KHD: maltose binding protein fused to the juxta-membrane and kinase homology domain of human GC-E (M496-K806) (human) (UniProt Q02846). In words: backscattering interferometry (BSI); free solution; myristoylated GCAP 0 to 6 μM with constant 375 nM MBP fusion protein; titration buffer with 200 μM Ca2+; MBP lacking a GC-E fragment as reference.
The target in experiment [2] is full-length human photoreceptor guanylate cyclase GC-E (human) (UniProt Q02846). In words: backscattering interferometry (BSI); free solution; HEK cell vesicles with full-length human GC-E (50 μg/mL total protein before mixing) with 0-10 μM GCAP; 30 mM Mops/KOH pH 7.2, 60 mM KCl, 4 mM NaCl, 1 mM DTT, 3.5 mM MgCl2, 1 mM GTP, 0.3 mM ATP; 1 mM EGTA; Mock-HEK vesicles as reference; apparent KD.

The target is the same in experiment [3]. In words: backscattering interferometry (BSI); free solution; HEK cell vesicles with full-length human GC-E with 0-10 μM GCAP; titration buffer with saturating 200 μM Ca2+; Mock-HEK vesicles as reference.
For experiment [4], the target named is MBP-KHD: maltose binding protein fused to the juxta-membrane and kinase homology domain of human GC-E (M496-K806) (human) (UniProt Q02846). In words: ITC; VP-ITC, 25 °C; MBP fusion protein 0.5 μM in the cell, GCAP 10 μM in the syringe; 30 mM Mops/KOH pH 7.2, 60 mM KCl, 4 mM NaCl, 1 mM DTT, 3.5 mM MgCl2, 1 mM GTP, 0.3 mM ATP; injections into MBP subtracted; one binding site model; data not shown. Background: Isothermal titration calorimetry measures the heat released or taken up as one component is titrated into another.

Experiment [5] concerns the target T1, full-length human photoreceptor guanylate cyclase GC-E (human, UniProt Q02846 52-1103).
T1 construct: also called guanylate cyclase 1; guanylate cyclase type 1
T1 sequence (looked up): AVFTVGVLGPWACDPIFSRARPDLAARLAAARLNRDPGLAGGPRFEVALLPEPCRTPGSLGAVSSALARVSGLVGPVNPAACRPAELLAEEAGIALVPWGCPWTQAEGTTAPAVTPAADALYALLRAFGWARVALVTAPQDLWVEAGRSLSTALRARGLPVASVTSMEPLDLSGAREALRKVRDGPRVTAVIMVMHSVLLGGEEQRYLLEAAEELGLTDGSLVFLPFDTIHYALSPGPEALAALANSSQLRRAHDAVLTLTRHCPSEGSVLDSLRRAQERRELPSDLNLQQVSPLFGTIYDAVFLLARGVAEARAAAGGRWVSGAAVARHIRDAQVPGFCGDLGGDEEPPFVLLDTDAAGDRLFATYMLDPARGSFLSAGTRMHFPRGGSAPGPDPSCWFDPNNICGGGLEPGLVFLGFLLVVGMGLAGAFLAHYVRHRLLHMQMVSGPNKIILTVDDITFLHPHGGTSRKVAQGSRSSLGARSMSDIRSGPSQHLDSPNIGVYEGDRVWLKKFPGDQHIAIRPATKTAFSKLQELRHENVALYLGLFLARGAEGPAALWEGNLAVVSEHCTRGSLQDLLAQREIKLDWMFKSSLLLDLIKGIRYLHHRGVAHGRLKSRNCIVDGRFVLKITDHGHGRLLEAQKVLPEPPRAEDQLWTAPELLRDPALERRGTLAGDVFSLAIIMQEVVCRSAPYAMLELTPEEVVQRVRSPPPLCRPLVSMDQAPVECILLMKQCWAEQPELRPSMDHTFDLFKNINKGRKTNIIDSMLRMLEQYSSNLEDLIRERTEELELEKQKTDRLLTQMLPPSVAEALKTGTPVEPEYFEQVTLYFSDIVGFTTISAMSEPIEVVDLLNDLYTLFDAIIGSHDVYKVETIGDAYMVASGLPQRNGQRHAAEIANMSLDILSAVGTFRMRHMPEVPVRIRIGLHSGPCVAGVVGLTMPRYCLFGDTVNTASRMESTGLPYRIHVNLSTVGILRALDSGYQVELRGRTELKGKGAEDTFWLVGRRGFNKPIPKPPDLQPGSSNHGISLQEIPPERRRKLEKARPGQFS
In words: backscattering interferometry (BSI); free solution; HEK cell vesicles with full-length human GC-E (50 μg/mL total protein before mixing) with 0-10 μM GCAP; 30 mM Mops/KOH pH 7.2, 60 mM KCl, 4 mM NaCl, 1 mM DTT, 3.5 mM MgCl2, 1 mM GTP, 0.3 mM ATP; 1 mM EGTA; Mock-HEK vesicles as reference; apparent KD. Conditions: one partner purified.

The target in experiment [6] is T1, full-length human photoreceptor …. In words: backscattering interferometry (BSI); free solution; HEK cell vesicles with full-length human GC-E with 0-10 μM GCAP; titration buffer with saturating 200 μM Ca2+; Mock-HEK vesicles as reference. The following applies: one partner purified.
For experiment [7], the target named is T2, myristoylated bovine recoverin (bovine, UniProt P21457 1-202, myristoylated).
T2 construct: recoverin, bovine, neuronal Ca2+-sensor protein of photoreceptors
T2 sequence (looked up): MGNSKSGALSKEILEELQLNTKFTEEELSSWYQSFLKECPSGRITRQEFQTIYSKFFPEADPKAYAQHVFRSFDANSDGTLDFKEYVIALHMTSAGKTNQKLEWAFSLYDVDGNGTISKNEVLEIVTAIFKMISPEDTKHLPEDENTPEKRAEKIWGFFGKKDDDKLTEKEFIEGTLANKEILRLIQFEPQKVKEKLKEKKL
The experiment in a line: backscattering interferometry (BSI); free solution, label-free; recoverin dilution series with constant 4 μM GST-NRK; 20 mM HEPES/KOH pH 7.5, 100 mM NaCl, 1 mM MgCl2, 200 μM CaCl2; GST alone as reference; one site binding model. Conditions: both partners purified.

A word on the stoichiometry N: it is the number of molecules, sites or subunits per partner or assembly.

As for “guanylate cyclase-activating protein 1 (GCAP1), myristoylated (from UniProt P46065 1-205) (natural protein)”, the Kd in experiment [1] worked out at 841 nM; in experiment [2], 663 nM; in experiment [3], 505 nM; in experiment [4], 580 nM. In experiment [4], this molecule had a stoichiometry N of 0.9.

B1: guanylate cyclase-activating protein 2 (GCAP2), myristoylated (natural protein, UniProt P51177 1-204, looked up)
chain: MGQQFSWEEAEENGAVGAADAAQLQEWYKKFLEECPSGTLFMHEFKRFFKVPDNEEATQYVEAMFRAFDTNGDNTIDFLEYVAALNLVLRGTLEHKLKWTFKIYDKDRNGCIDRQELLDIVESIYKLKKACSVEVEAEQQGKLLTPEEVVDRIFLLVDENGDGQLSLNEFVEGARRDKWVMKMLQMDLNPSSWISQQRRKSAMF
modifications: myristoylated
On to B1, for which the Kd in experiment [5] came to 231 nM; in experiment [6] it was 418 ± 135 nM.

B2: GST fusion protein containing the N-terminal 25 amino acids of bovine GRK1 (domain or fragment, UniProt P28327 1-25, looked up)
chain: MDFGSLETVVANSAFIAARGSFDAS
notes: rhodopsin kinase GRK1, bovine, the N-terminal 25 amino acids; also called NRK; N-terminal GRK1 fragment
On to B2, for which, in experiment [7], the Kd turned out to be 4720 nM.
